The source of these data is paper PMC3035457 (Nucleic Acids Research, 2010).

For this assay, the target named is T1, MBP-GCM1(167–349) (human, UniProt Q9NP62 167-349).
T1 sequence: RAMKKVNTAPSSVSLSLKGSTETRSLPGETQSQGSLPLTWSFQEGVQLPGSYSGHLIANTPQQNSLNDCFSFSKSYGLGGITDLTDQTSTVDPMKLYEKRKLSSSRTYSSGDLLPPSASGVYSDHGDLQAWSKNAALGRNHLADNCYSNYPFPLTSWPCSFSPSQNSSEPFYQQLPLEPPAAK
Description: pull-down.

B1: recombinant DUSP23-FLAG (DUSP23 with a C-terminal FLAG tag) (enzyme)
chain: MGVQPPNFSWVLPGRLAGLALPRLPAHYQFLLDLGVRHLVSLTERGPPHSDSCPGLTLHRLRIPDFCPPAPDQIDRFVQIVDEANARGEAVGVHCALGFGRTGTMLACYLVKERGLAAGDAIAEIRRLRPGSIETYEQEKAVFQFYQRTK
B1: the binding result is “binds”.
